Measurements as given in US20050130227A1 (MUNIN, published 2005).

B1: recombinant GST-mGPBP fusion protein (other)
chain: MAQHDFAPAWLNFPTPPSSTKSSLNFEKHSENFSWTENRYDVSRRRHNSSDGFDSGIGRPNGGNFGRKEKNGWRTHGRNGTENINHRGGYHGGNSRSRSSIFHSGKSQGLHENSIPDNETGRKEDKRERRQFEAEDFPSLNPEYEREPNQNKSLAAGVWGLHAQTHTYPTKKISQAPLLDYPPNPKSRTPRMLVIKKGNTKDLQLSGFPVAGNLQSQPVKNGTSPSVYKGLVPKPAVPPTKPTQWKSQTKENKVGTSFSHESTYGVGNFNTFKSTAKNISPSTNSVKECNRSNSSSPVDKLNQQPRLTKLTRMRSDKKSEFLKALKRDRVEEEHEDESHAGSEKDDDSFNLHNSNTTHQERDINRNFDENEIPQENGNASIISQQIIRSSTFPQTDVLSSSLEAEHRLLKEMGWQEDSENDETCAPLTEDEMREFQVISEQLQKNGLRKNGILKNGLICDFKFGPWKNSTFKPTIENDDTETSSSDTSDDDDV
notes: also called immobilized recombinant mGPBP; bead immobilized GST-mGPBP fusion proteins; not shown: N-terminal glutathione S-transferase (GST) carrier and the vector-encoded linker of pGEX-4T-1 between GST and the insert
B2: HA-tagged mGPBP (other)
chain: B1 chain
notes: Expressed from pCDNAHA-mGPBP in transfected mouse C1-1D cells; whole mGPBP ORF; also called HA-mGPBP; HA-tag fused to mGPBP; not shown: hemagglutinin antigen (HA) tag upstream of and in frame with the ORF

How the values were obtained:
[1] = target: T1, nuclear membrane protein nucleoporin p62 (mouse, UniProt Q63850 2-526); assay: GST pull-down from mouse C1-1D nuclear extract, Western blot
T1 construct: Negative control protein; detected with anti-Nucleoporin p62 monoclonal clone 53; also called nuclear envelope protein Nucleoporin p62
T1 sequence (looked up): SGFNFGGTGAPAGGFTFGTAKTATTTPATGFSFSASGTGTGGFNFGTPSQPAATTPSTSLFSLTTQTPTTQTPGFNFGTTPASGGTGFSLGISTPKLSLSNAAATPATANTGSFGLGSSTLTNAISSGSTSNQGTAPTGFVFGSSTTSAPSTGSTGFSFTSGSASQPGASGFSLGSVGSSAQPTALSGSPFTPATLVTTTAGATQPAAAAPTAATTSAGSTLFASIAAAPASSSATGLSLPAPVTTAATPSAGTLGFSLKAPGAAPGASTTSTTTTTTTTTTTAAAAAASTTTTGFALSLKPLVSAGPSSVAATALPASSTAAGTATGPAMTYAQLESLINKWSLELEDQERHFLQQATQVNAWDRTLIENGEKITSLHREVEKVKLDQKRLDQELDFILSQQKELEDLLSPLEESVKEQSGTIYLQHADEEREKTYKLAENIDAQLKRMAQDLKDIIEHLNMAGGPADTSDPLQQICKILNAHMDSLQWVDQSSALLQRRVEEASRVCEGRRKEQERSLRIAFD
Text: (A) Mouse C1-1D cell nuclear extract proteins were allowed to bind to bead immobilized GST-mGPBP fusion proteins. […] The antibodies used to probe these blots were raised against TBP, The C-terminal domain of RNA polymerase II (RNA pol II CTD), Transcription Fraction IIB (TFIIB), Transcription Fraction IIF RAP30 subunit (TFIIF RAP30), P300/CAAT Binding Protein (CBP), and the negative control antibodies against the nuclear envelope protein Nucleoporin p62. The estimated molecular weight of proteins in each band (in Kd) based on electrophoretic mobility in comparison to protein size markers were shown on the right by arrows. (B) In vivo binding of mGPBP was determined by immuno-coprecipitation analyses of cell lysates. […] The antibodies raised against TBP, RNA pol II CTD, TFIIB, CBP, or HA-tag were used as probes as indicated in each blot. The estimated molecular weight of proteins in each band (in Kd) based on electrophoretic mobility in comparison to protein size markers are shown on by arrows. The migration location of the HA-mGPBP fusion protein is also shown on the right of the panel with an arrow.
Nuclear extracts were prepared as previously described (Berger and Kimmel, 1987) with minor modifications. Mouse C1-1D Cells were collected and washed with 10 volumes of PBS once. […]

[2] = target: T1, nuclear membrane protein nucleoporin p62; assay: co-immunoprecipitation with anti-HA antibodies from transfected C1-1D cells, Western blot
Text: To examine whether the in vitro complexing of GPBP with transcription factors also occurs in vivo, we performed a co-immunoprecipitation experiment using an HA-tagged mGPBP expression construct in mouse C1-1D cells. The hemagglutinin antigen (HA)-tagged (Field, 1988[2]) mGPBP eukaryotic expression construct pCDNAHA-mGPBP was generated by inserting the (HA) tag coding sequence upstream of, and in frame with, the mGPBP cDNA's ORF in pCDNA-mGPBP. Anti-HA antibodies were used to immunoprecipitate nuclear extract proteins derived from the transfected cells. As a control, nuclear extract from cells transfected with the HA expression vector containing no GPBP-encoding sequences underwent a similar immunoprecipitation procedure.

Binder	binding result [1]	binding result [2]
B1	no binding	
B2		no binding
